Measurements reported in patent US20190256585A1 (IMMUNEMED, published 2019).

B1: humanized virus suppressing factor wild-type (hzVSF_wt) (antibody, V domains shown)
VH: EVQLVQSGAEVKKPGASVKVSCKASGYTFTGYNMNWVRQAPGKGLEWMGNIDPYYGSTTYAQKFQGRVTMTVDKSISTAYMELSRLRSDDTAVYYCARETGTRAMDYWGQGTLVTVSS
VL: DIQMTQSPSSLSASVGDRVTITCRASENIYSNLAWYQQKPGKAPKLLIYVATNLADGVPSRFSGSGSGTDFTLTISSLQPEDFATYYCQHFYGSPRTFGGGTKVEIK
notes: also called hzVSF wild-type
B2: hzVSF_var12 (antibody, V domains shown)
VH: EVQLVQSGAEVKKPGASVKVSCKASGYTFTGYNMNWVRQAPGKGLEWMGNIDPYYGSDTYAQKFQGRVTMTVDTSASTAYMELSRLRSDDTAVYYCARETGNRAMDYWGQGTLVTVSS
VL: DIQMTQSPSSLSASVGDRVTITCRASENIYSNLAWYQQKPGKAPKLLIYVADNRGDGVPSRFSGSGSGTDFTLTISSLQPEDFATYYCQHFYGTPRTFGGGTKVEIK
notes: Humanized IgG variant of hzVSF; constant regions not tied to this variant
B3: hzVSF_var10 (antibody, V domains shown)
VH: EVQLVQSGAEVKKPGASVKVSCKASGYTFTGYNMNWVRQAPGKGLEWMGNIDPYYGSDTYAQKFQGRVTMTVDTSASTAYMELSRLRSDDTAVYYCARETGNRAMDYWGQGTLVTVSS
VL: DIQMTQSPSSLSASVGDRVTITCRASENIYSNLAWYQQKPGKAPKLLIYVADNRGDGVPSRFSGSGSGTDFTLTISSLQPEDFATYYCQHFYGSPRTFGGGTKVEIK
notes: as for B2
B4: hzVSF_var1 (antibody, V domains shown)
VH: EVQLVQSGAEVKKPGASVKVSCKASGYTFTGYNMNWVRQAPGKGLEWMGNIDPYYGSTTYAQKFQGRVTMTVDKSISTAYMELSRLRSDDTAVYYCARETGTRAMDYWGQGTLVTVSS
VL: DIQMTQSPSSLSASVGDRVTITCRASENIYSNLAWYQQKPGKAPKLLIYVADNLADGVPSRFSGSGSGTDFTLTISSLQPEDFATYYCQHFYGSPRTFGGGTKVEIK
notes: Humanized IgG variant of hzVSF; constant regions not tied to this variant; also called hzVSF_1
B5: hzVSF_var3 (antibody, V domains shown)
VH: EVQLVQSGAEVKKPGASVKVSCKASGYTFTGYNMNWVRQAPGKGLEWMGNIDPYYGSTTYAQKFQGRVTMTVDKSISTAYMELSRLRSDDTAVYYCARETGTRAMDYWGQGTLVTVSS
VL: DIQMTQSPSSLSASVGDRVTITCRASENIYSNLAWYQQKPGKAPKLLIYVADNRGDGVPSRFSGSGSGTDFTLTISSLQPEDFATYYCQHFYGSPRTFGGGTKVEIK
notes: as for B2
B6: hzVSF_var2 (antibody, V domains shown)
VH: EVQLVQSGAEVKKPGASVKVSCKASGYTFTGYNMNWVRQAPGKGLEWMGNIDPYYGSTTYAQKFQGRVTMTVDKSISTAYMELSRLRSDDTAVYYCARETGTRAMDYWGQGTLVTVSS
VL: DIQMTQSPSSLSASVGDRVTITCRASENIYSNLAWYQQKPGKAPKLLIYVADNLGDGVPSRFSGSGSGTDFTLTISSLQPEDFATYYCQHFYGSPRTFGGGTKVEIK
notes: as for B2
B7: hzVSF_var4 (antibody, V domains shown)
VH: EVQLVQSGAEVKKPGASVKVSCKASGYTFTGYNMNWVRQAPGKGLEWMGNIDPYYGSTTYAQKFQGRVTMTVDKSISTAYMELSRLRSDDTAVYYCARETGTRAMDYWGQGTLVTVSS
VL: DIQMTQSPSSLSASVGDRVTITCRASENIYSNLAWYQQKPGKAPKLLIYVADNRGDGVPSRFSGSGSGTDFTLTISSLQPEDFATYYCQHFYGTPRTFGGGTKVEIK
notes: as for B2
B8: hzVSF_var6 (antibody, V domains shown)
VH: EVQLVQSGAEVKKPGASVKVSCKASGYTFTGYNMNWVRQAPGKGLEWMGNIDPYYGSTTYAQKFQGRVTMTVDTSASTAYMELSRLRSDDTAVYYCARETGTRAMDYWGQGTLVTVSS
VL: DIQMTQSPSSLSASVGDRVTITCRASENIYSNLAWYQQKPGKAPKLLIYVATNLADGVPSRFSGSGSGTDFTLTISSLQPEDFATYYCQHFYGSPRTFGGGTKVEIK
notes: as for B2
B9: hzVSF_var13 (antibody, V domains shown)
VH: EVQLVQSGAEVKKPGASVKVSCKASGYTFTGYNMNWVRQAPGKGLEWMGNIDPYYGSDTYAQKFQGRVTMTVDKSISTAYMELSRLRSDDTAVYYCARETGTRAMDYWGQGTLVTVSS
VL: DIQMTQSPSSLSASVGDRVTITCRASENIYSNLAWYQQKPGKAPKLLIYVADNLADGVPSRFSGSGSGTDFTLTISSLQPEDFATYYCQHFYGSPRTFGGGTKVEIK
notes: constant regions not tied to this variant; also called hzVSF v13
B10: hzVSF_var7 (antibody, V domains shown)
VH: EVQLVQSGAEVKKPGASVKVSCKASGYTFTGYNMNWVRQAPGKGLEWMGNIDPYYGSDTYAQKFQGRVTMTVDTSASTAYMELSRLRSDDTAVYYCARETGTRAMDYWGQGTLVTVSS
VL: DIQMTQSPSSLSASVGDRVTITCRASENIYSNLAWYQQKPGKAPKLLIYVATNLADGVPSRFSGSGSGTDFTLTISSLQPEDFATYYCQHFYGSPRTFGGGTKVEIK
notes: as for B2
B11: hzVSF_var5 (antibody, V domains shown)
VH: EVQLVQSGAEVKKPGASVKVSCKASGYTFTGYNMNWVRQAPGKGLEWMGNIDPYYGSDTYAQKFQGRVTMTVDKSISTAYMELSRLRSDDTAVYYCARETGTRAMDYWGQGTLVTVSS
VL: DIQMTQSPSSLSASVGDRVTITCRASENIYSNLAWYQQKPGKAPKLLIYVATNLADGVPSRFSGSGSGTDFTLTISSLQPEDFATYYCQHFYGSPRTFGGGTKVEIK
notes: as for B2
B12: hzVSF_var8 (antibody, V domains shown)
VH: EVQLVQSGAEVKKPGASVKVSCKASGYTFTGYNMNWVRQAPGKGLEWMGNIDPYYGSDTYAQKFQGRVTMTVDTSASTAYMELSRLRSDDTAVYYCARETGNRAMDYWGQGTLVTVSS
VL: DIQMTQSPSSLSASVGDRVTITCRASENIYSNLAWYQQKPGKAPKLLIYVATNLADGVPSRFSGSGSGTDFTLTISSLQPEDFATYYCQHFYGSPRTFGGGTKVEIK
notes: as for B2
B13: hzVSF_var11 (antibody, V domains shown)
VH: EVQLVQSGAEVKKPGASVKVSCKASGYTFTGYNMNWVRQAPGKGLEWMGNIDPYYGSDTYAQKFQGRVTMTVDTSASTAYMELSRLRSDDTAVYYCARETGTRAMDYWGQGTLVTVSS
VL: DIQMTQSPSSLSASVGDRVTITCRASENIYSNLAWYQQKPGKAPKLLIYVADNRGDGVPSRFSGSGSGTDFTLTISSLQPEDFATYYCQHFYGTPRTFGGGTKVEIK
notes: as for B2
B14: hzVSF_var9 (antibody, V domains shown)
VH: EVQLVQSGAEVKKPGASVKVSCKASGYTFTGYNMNWVRQAPGKGLEWMGNIDPYYGSDTYAQKFQGRVTMTVDTSASTAYMELSRLRSDDTAVYYCARETGTRAMDYWGQGTLVTVSS
VL: DIQMTQSPSSLSASVGDRVTITCRASENIYSNLAWYQQKPGKAPKLLIYVADNRGDGVPSRFSGSGSGTDFTLTISSLQPEDFATYYCQHFYGSPRTFGGGTKVEIK
notes: as for B2
B15: mouse virus suppressing factor (mVSF) (antibody, V domains shown)
VH: EIQLQQSGAELVKPGASVKISCKASGYSFTGYNMNWVKQSHGKSLEWIGNIDPYYGSTTYNQKFKGKATLTVDKSSSTAYMQLNSLTSEDSAVYYCARETGTRAMDYWGQGTSVTVSS
VL: DIQMTQSPASLSASVGETVTMTCRASENIYSNLAWYQQKQGKSPQLLVYVATNLADGVPSRFSGSGSGTQFSLKINSLQPEDFGSYYCQHFYGSPRTFGGGTKLEIKR
notes: also called mouse VSF

Legend:
[1] = target: isolated peptide of SEQ ID NO: 1 (vimentin amino acid positions 142 to 294); assay: method not described (refers to FIGS. 54 to 58)
[2] = target: T1, VSF receptors on L929 cells infected with EMC-D virus (mouse, UniProt P20152 2-466); assay: depletion of ligand from the culture supernatant of EMC-D-infected L929 cells (added minus recovered after 1 hour)
T1 construct: also called receptors of hzVSF; VR
T1 sequence (P20152 2-466 limits assumed, form in doubt): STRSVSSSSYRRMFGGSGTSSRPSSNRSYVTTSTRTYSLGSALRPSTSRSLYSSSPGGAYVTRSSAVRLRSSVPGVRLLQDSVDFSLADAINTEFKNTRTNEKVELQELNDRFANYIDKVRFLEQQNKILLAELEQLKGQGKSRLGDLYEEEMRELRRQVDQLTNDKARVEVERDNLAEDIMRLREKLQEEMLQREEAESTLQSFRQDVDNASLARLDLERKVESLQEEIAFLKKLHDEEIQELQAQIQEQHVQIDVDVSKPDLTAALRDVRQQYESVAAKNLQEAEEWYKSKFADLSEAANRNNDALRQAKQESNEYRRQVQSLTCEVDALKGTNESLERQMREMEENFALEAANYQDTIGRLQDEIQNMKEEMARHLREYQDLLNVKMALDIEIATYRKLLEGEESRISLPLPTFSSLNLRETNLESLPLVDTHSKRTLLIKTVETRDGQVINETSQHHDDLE
Experimental: L929 cells were seeded at the amount of 6×10⁵ cells and infected with 2 MOI of EMC-D virus for 0, 2, 6, and 10 hours, respectively. […] The difference between the amount of each ligand added and the amount of the collected ligand after reaction is the amount of the ligand bound to the receptors, and based on the result, the affinity constant (Ka) and the dissociation constant (Kd) were calculated (Table 11).

| Binder | binding result [1] | Ka [2] [M⁻¹] | Kd [2] [nM] |
| --- | --- | --- | --- |
| B1 | binds | 8.2e+09 | 0.12 |
| B2 | binds |  |  |
| B3 | binds |  |  |
| B4 | binds |  |  |
| B5 | binds |  |  |
| B6 | binds |  |  |
| B7 | binds |  |  |
| B8 | binds |  |  |
| B9 | binds | 1.7e+10 | 0.059 |
| B10 | binds |  |  |
| B11 | binds |  |  |
| B12 | binds |  |  |
| B13 | binds |  |  |
| B14 | binds |  |  |
| B15 |  | 2.1e+10 | 0.047 |
